Drawing on publication PMC10786891, “Massively parallel profiling of RNA-targeting CRISPR-Cas13d”, this text covers Kd for 32 molecules.

Positions count from the first letter of the chain named. Names and notes keep the numbering of the source.

The chains are these.
T1: EsCas13d, nuclease-dead (Eubacterium siraeum, UniProt B0MS50, R295A;H300A;R849A;H854A)
T1 sequence: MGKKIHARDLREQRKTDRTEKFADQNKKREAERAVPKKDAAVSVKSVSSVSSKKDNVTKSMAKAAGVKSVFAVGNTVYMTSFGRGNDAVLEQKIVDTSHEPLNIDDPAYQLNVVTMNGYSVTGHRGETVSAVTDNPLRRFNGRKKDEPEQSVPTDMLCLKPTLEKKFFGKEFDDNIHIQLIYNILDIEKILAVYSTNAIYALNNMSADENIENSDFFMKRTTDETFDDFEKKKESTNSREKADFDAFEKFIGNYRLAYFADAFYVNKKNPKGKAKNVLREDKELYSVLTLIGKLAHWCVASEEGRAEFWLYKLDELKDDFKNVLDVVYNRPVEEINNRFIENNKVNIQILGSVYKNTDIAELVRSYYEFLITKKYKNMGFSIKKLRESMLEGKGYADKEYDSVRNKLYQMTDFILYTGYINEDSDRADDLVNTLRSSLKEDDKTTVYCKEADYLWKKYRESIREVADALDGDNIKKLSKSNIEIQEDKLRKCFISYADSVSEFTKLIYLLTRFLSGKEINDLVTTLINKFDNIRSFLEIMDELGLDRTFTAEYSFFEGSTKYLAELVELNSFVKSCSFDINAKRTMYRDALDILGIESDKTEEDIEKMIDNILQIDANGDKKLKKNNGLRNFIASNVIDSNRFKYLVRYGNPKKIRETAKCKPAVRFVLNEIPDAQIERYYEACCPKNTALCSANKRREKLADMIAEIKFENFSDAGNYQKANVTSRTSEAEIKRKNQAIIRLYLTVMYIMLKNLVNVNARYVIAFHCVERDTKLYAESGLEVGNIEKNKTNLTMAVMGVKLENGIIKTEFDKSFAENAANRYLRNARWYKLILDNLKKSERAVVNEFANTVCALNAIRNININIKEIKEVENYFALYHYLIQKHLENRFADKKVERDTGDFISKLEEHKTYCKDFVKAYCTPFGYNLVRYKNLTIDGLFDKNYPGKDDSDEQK

B1: target 1 U10G,G12A (mixed)
RNA 1: CACCCGUGCAAAAAUGCAGGGGUCUAAAACUGAGCGGAUAACCUCUCUAUGG
RNA 2: GGGAAUGGAUCCACAUCUACGAAUUCGUACCAUAGAGAGAUGAUCCGCUCACCGAGAUCGGAAGAGCACACGU
B2: target 1 C4A,G12A (mixed)
RNA 1: B1 RNA 1
RNA 2: B1 RNA 2 with G42U, C48A
B3: target 1 C7U,A14U (mixed)
RNA 1: B1 RNA 1
RNA 2: B1 RNA 2 with A38U, A40G, G42U, C45U
B4: target 1 insA 3' of 4,insA 3' of 2 (mixed)
RNA 1: B1 RNA 1
RNA 2: GGGAAUGGAUCCACAUCUACGAAUUCGUACCAUAGAGAGGUUAUCCGCAUCAACCGAGAUCGGAAGAGCACACGU
B5: target 1 G12A,A16C (mixed)
RNA 1: B1 RNA 1
RNA 2: B1 RNA 2 with A36C, G42U
B6: target 1 insU 3' of 13,insA 3' of 10 (mixed)
RNA 1: B1 RNA 1
RNA 2: GGGAAUGGAUCCACAUCUACGAAUUCGUACCAUAGAGAGUGUUAAUCCGCUCACCGAGAUCGGAAGAGCACACGU
B7: target 1 insG 3' of 6,insA 3' of 4 (mixed)
RNA 1: B1 RNA 1
RNA 2: B4 RNA 2 with C48G, A49C, U50A, C51U, A52C
B8: target 1 U11A,G12A (mixed)
RNA 1: B1 RNA 1
RNA 2: B1 RNA 2 with U41A, G42U
B9: target 1 G5C,A18U (mixed)
RNA 1: B1 RNA 1
RNA 2: B1 RNA 2 with A34U, A40G, G42U, G47C
B10: target 1 C6G,A16G (mixed)
RNA 1: B1 RNA 1
RNA 2: B1 RNA 2 with A36G, A40G, G42U, C46G
B11: target 1 insC 3' of 22,insG 3' of 14 (mixed)
RNA 1: B1 RNA 1
RNA 2: GGGAAUGGAUCCACAUCUACGAAUUCGUACCCAUAGAGAGGGUUAUCCGCUCACCGAGAUCGGAAGAGCACACGU
B12: target 1 insC 3' of 14,insU 3' of 4 (mixed)
RNA 1: B1 RNA 1
RNA 2: B6 RNA 2 with G39C, U40G, A45U, U46C, C48G, G49C, C50U
B13: target 1 C7G,G17U (mixed)
RNA 1: B1 RNA 1
RNA 2: B1 RNA 2 with G35U, A40G, G42U, C45G
B14: target 1 insG 3' of 10,insU 3' of 9 (mixed)
RNA 1: B1 RNA 1
RNA 2: B6 RNA 2 with U40G, G41U, U43G, A45U
B15: target 1 insG 3' of 14,insU 3' of 6 (mixed)
RNA 1: B1 RNA 1
RNA 2: B6 RNA 2 with U40G, A45U, U46C, C48U
B16: target 1 insC 3' of 22,insU 3' of 9 (mixed)
RNA 1: B1 RNA 1
RNA 2: B11 RNA 2 with G42U, U44A, A45U
B17: target 1 insC 3' of 11,insG 3' of 11 (mixed)
RNA 1: B1 RNA 1
RNA 2: B6 RNA 2 with U40G, G41U, U42C, U43G, A44U
B18: target 1 insC 3' of 12,insC 3' of 11 (mixed)
RNA 1: B1 RNA 1
RNA 2: B6 RNA 2 with U40G, G41C, U43C, A44U
B19: target 1 insA 3' of 15,insU 3' of 1 (mixed)
RNA 1: B1 RNA 1
RNA 2: B4 RNA 2 with G39A, U41G, A43U, U44A, C45U, G47C, C48G, A49C, A53U
B20: target 1 insA 3' of 22,insA 3' of 2 (mixed)
RNA 1: B1 RNA 1
RNA 2: GGGAAUGGAUCCACAUCUACGAAUUCGUACACAUAGAGAGGUUAUCCGCUCAACCGAGAUCGGAAGAGCACACGU
B21: target 1 del2,del5 (mixed)
RNA 1: B1 RNA 1
RNA 2: GGGAAUGGAUCCACAUCUACGAAUUCGUACCAUAGAGAGGUUAUCCCUACCGAGAUCGGAAGAGCACACGU
B22: target 1 insG 3' of 11,insG 3' of 9 (mixed)
RNA 1: B1 RNA 1
RNA 2: B6 RNA 2 with U40G, G41U, U42G, A45G
B23: target 1 del7,del9 (mixed)
RNA 1: B1 RNA 1
RNA 2: B21 RNA 2 with A43U, U44C, C45G, C47U, U48C
B24: target 1 U3G,C21A (mixed)
RNA 1: B1 RNA 1
RNA 2: B1 RNA 2 with C31A, A40G, G42U, U49G
B25: target 1 insG 3' of 11,insA 3' of 10 (mixed)
RNA 1: B1 RNA 1
RNA 2: B6 RNA 2 with U40G, G41U, U42G
B26: target 1 insG 3' of 14,insC 3' of 10 (mixed)
RNA 1: B1 RNA 1
RNA 2: B6 RNA 2 with U40G, A44C
B27: target 1 C6U,C22A (mixed)
RNA 1: B1 RNA 1
RNA 2: B1 RNA 2 with C30A, A40G, G42U, C46U
B28: target 1 insA 3' of 22,insC 3' of 1 (mixed)
RNA 1: B1 RNA 1
RNA 2: B20 RNA 2 with A53C
B29: target 1 A14G,A16C (mixed)
RNA 1: B1 RNA 1
RNA 2: B1 RNA 2 with A36C, A38G, A40G, G42U
B30: target 1 U8C,G17C (mixed)
RNA 1: B1 RNA 1
RNA 2: B1 RNA 2 with G35C, A40G, G42U, U44C
B31: target 1 insG 3' of 14,insU 3' of 7 (mixed)
RNA 1: B1 RNA 1
RNA 2: B6 RNA 2 with U40G, A45U, U46C, C47U
B32: target 1 insA 3' of 4,insC 3' of 1 (mixed)
RNA 1: B1 RNA 1
RNA 2: B4 RNA 2 with A53C

The target of this data set is T1, EsCas13d, nuclease-dead. The data set is described as follows: crRNA (strand 1, pre-loaded); Mg2+; 40 mM Tris-HCl pH 7.5, 150 mM NaCl, 6 mM MgCl2, 1 mM DTT, 0.1% Tween-20, 0.2 mg/ml BSA; 25 C; 10 min per concentration, then washed. The conditions noted are these: tags: His6-TwinStrep-SUMO cleaved; N-terminal SNAP kept (SNAP-Surface 488); label: 3' end held by stalled T7 RNA polymerase.
Molecule B1 yielded a Kd of 32.9 ± 2.7 nM.

The molecule B2 had a Kd of 4.9 ± 0.5 nM.

B3 registered a Kd of 37 ± 5 nM.

In turn, B4 came in with a Kd of 6.2 ± 0.5 nM.

B5: binding was put at a Kd of 36 ± 3.3 nM.

Molecule B6 came in with a Kd of 26 ± 5 nM.

In turn, B7 gave a Kd of 6.9 ± 0.4 nM.

Regarding B8, the Kd is 4 ± 0.29 nM.

B9 registered a Kd of 27 ± 4 nM.

Molecule B10 showed a Kd of 31.8 ± 1.6 nM.

The molecule B11 gave a Kd of 47 ± 5 nM.

For B12, the Kd was determined as 43 ± 4 nM.

B13 gave a Kd of 35 ± 5 nM.

Turning to B14, the Kd was found to be 18.1 ± 1.4 nM.

B15 showed a Kd of 39 ± 6 nM.

For B16, the affinity, expressed as Kd, was 30 ± 5 nM.

B17: binding was characterised by a dissociation constant (Kd) of 42 ± 4 nM.

Regarding B18, the affinity, expressed as Kd, was 17 ± 2.8 nM.

In the case of B19, the Kd came out at 6.7 ± 0.7 nM.

With B20, the Kd was found to be 12.7 ± 0.5 nM.

For the molecule B21, the Kd stood at 16.9 ± 1 nM.

Consider B22, for which the Kd turned out to be 17.2 ± 0.6 nM.

For the molecule B23, binding was put at a Kd of 12.3 ± 0.9 nM.

Molecule B24 came in with a Kd of 41 ± 14 nM.

For the molecule B25, binding was put at a Kd of 21.5 ± 2.4 nM.

In turn, B26 gave a Kd of 47 ± 12 nM.

For the molecule B27, the Kd was 15.8 ± 1.4 nM.

The molecule B28 gave a Kd of 12.8 ± 0.8 nM.

In the case of B29, the Kd was determined as 67 ± 11 nM.

B30 showed a Kd of 90 ± 32 nM.

For the molecule B31, binding was characterised by a dissociation constant (Kd) of 18.5 ± 1.2 nM.

The molecule B32 returned a Kd of 18.9 ± 3.3 nM.
